Columns and labels:
Format in all cases: cell-based, Staphylococcus aureus
S. aureus ATCC 25923 = test: Checkerboard MICs and FIC index, penicillin with bovine LF
Method: (§1) The MICs were determined by both macrodilution (1 ml/tube) and microdilution (100 μl/well) in sterile 96 well microtiter plates (International Nunc, Napierville, Ill.) techniques in three separate experiments according to the National Committee for Clinical Laboratory Standards (1992 and 1999) in three separate experiments. Serial 2-fold dilutions in MHB of LF, LFC, antibiotic or combination of LF or LFC with antibiotic were inoculated with an overnight culture at a final inoculum of 10^6 cfu/ml in MHB. Effect of LF combination with antibiotic on MICs were determined by adding 0.5 mg or 1 mg/ml of LF to each antibiotic dilution. The MIC was defined as the lowest concentration of drug (highest dilution) that caused a complete inhibition of bacterial growth after an incubation of 18 h. Effect of LF or LFC combination with antibiotic on MIC was also determined by checkerboard method using 96 well microtiter plates. Each antibiotic dilution (50 μl) was serially added to the wells in vertical rows starting from the top (lower dilution) to the bottom. Lactoferrin or LFC (50 μl) were added to 50 μl of each antibiotic dilution and serially diluted starting at the left (lower dilution) to the right. After inoculation, the final concentration of antibiotic from top to bottom were 32 to 8, 2 to 0.5, 0.5 to 0.125 μg/ml for penicillin, cefazolin and neomycin, respectively. From left to right, the concentration of LF or LFC were 25 to 0.0244 mg/ml or 256 to 0.5 μg/ml respectively in a final volume of 100 μl/well. The microplate's were incubated at 37° C. for 24 h. Bacterial growth was measured optically at 540 nm using Spectra Max 250 Microplate Spectrophotometer System of Molecular Device (Fisher Scientific, Ottawa, Canada). Tubes were incubated at 37° C. for 18 h and bacterial growth was measured by visual examination and optically at 540 nm using a spectrophotometer (Philips PU 8800; Pye Unican Ltd, Cambridge, UK). The fractional inhibitory concentration (FIC) was calculated as described by Eliopoulos and Moellering (1991).
(§2) FIC antibiotic A=MICantibiotic A (in the presence of antibiotic B)/MICantibiotic A alone. FIC Index=FICantibiotic A+FICantibiotic B
(§3) The effects of the antibiotics were considered to be synergistic or indifferent when FIC Index was<1 or>1, respectively.

S. aureus PC-1 = test: as above
Method: as §1, §2, §3

S. aureus SHY97-3906 = test: as above
Method: as §1, §2, §3

S. aureus SHY97-4320 = test: as above
Method: as §1, §2, §3

S. aureus strains = test: MIC / FIC determination, summary over strains; conditions: strains of Table 1
Text: Staphylococcus aureus strains ATCC 25923 and 6538 and Escherichia coli ATCC 25922 were obtained from the American Type Culture Collection. Eight bovine mastitis clinical isolates of S. aureus (SHY97-3906, -3923, -4085 -4242, -4320 and -4343, RFT-1 and RFT-5) and one isolate of E. coli SHY97-3923-2 and one isolate of Kiebsiella pneumoniae SHY99-723-1 were kindly provided by the Laboratoire Provincial de Pathologie Animale of St-Hyacinthe and of Rock-Forest (Quebec, Canada), respectively. Nine β-lactam antibiotics resistant S. aureus strains (PC-1, NCTC 9789, 2076, 22260, ST79/741, 3804, RN9, FAR8, and FAR10) were obtained from Vanderbilt University School of Medicine (Nashville, Tenn., USA). […]
The MICs were determined by both macrodilution (1 ml/tube) and microdilution (100 μl/well) in sterile 96 well microtiter plates (International Nunc, Napierville, Ill.) techniques in three separate experiments according to the National Committee for Clinical Laboratory Standards (1992 and 1999) in three separate experiments. […] Effect of LF combination with antibiotic on MICs were determined by adding 0.5 mg or 1 mg/ml of LF to each antibiotic dilution. […] Effect of LF or LFC combination with antibiotic on MIC was also determined by checkerboard method using 96 well microtiter plates. […] The fractional inhibitory concentration (FIC) was calculated as described by Eliopoulos and Moellering (1991). […]

[1] = system: β-lactamase induction in S. aureus SHY97-4320; test: Induction of β-lactamase after LF pre-incubation (signal transduction); conditions: LF 1 mg/ml added 30 or 60 min before 8 μg/ml penicillin G, 4 h
Method: As the β-lactamase system is the best-known signal transduction system in S. aureus. We tested the ability of LF to inhibit signal transduction in S. aureus SHY97-4320 which is an inducible beta-lactamase producing strain. Bacterial cells were first exposed during 30 or 60 min to LF in broth and were further treated with 8 μg/ml of penicillin G for an additional 4 h. The cfu/ml were determined, cells aliquots were centrifuged and pellets were suspended in 10 mM HEPES buffer (pH 7.4) as mentioned above. Nitrocefin (100 μM) was added to 20 μl of cells in a final volume of 200 μl. Hydrolysis was measured at 486 nm on a Spectra Max 250 Microplate Spectrophotometer System of Molecular Device (Fisher Scientific, Ottawa, Canada). β-Lactamase activity was expressed as ΔO.D.486 nm/min and corrected for bacterial OD.

S. aureus = test: Growth inhibition and influence of iron
Method: The effect of LF or LFC at concentration sub-MICs alone or in combination with sub-MICs of antibiotics on bacterial growth rate of S. aureus, E. coli and K. pneumoniae was determined by monitoring bacterial cultures in MHB with the O.D.600 nm or by the count of colony forming unit per ml (cfu/ml). A volume of 2.5 ml of overnight cultures in MHB adjusted to 0.5-1 McFarland standard in saline were used to inoculate a final volume of 25 ml of fresh MHB containing the desired concentration of tested compounds. All flasks were then incubated at 37° C. with agitation (200 rpm) for 9 h. Aliquots were removed every hour to determine the culture turbidity using the spectrophotometer Philips PU 8800 (Pye Unican Ltd, Cambridge, UK). The combined antibiotic effect on bacterial growth was also determined using concentrations of LF in the presence of different concentrations of antibiotics. Briefly, a volume of 3 ml of fresh MHB containing desired concentration of drugs was adjusted to an optical density of 0.4 at 540 nm after an overnight culture. The culture was then incubated at 37° C with agitation (200 rpm). After incubation, aliquots were removed to determine the culture turbidity (OD540nm) or cfu/ml. To determine the influence of the level of iron on of the growth inhibition by the test compound, 5 μM of FeCl3 were added to the media.

[2] = in combination with penicillin, checkerboard

B1: LF: bovine lactoferrin, 80-kDa iron-binding glycoprotein found in milk (protein, UniProt P24627 20-708, looked up)
Lactotransferrin: APRKNVRWCTISQPEWFKCRRWQWRMKKLGAPSITCVRRAFALECIRAIAEKKADAVTLDGGMVFEAGRDPYKLRPVAAEIYGTKESPQTHYYAVAVVKKGSNFQLDQLQGRKSCHTGLGRSAGWIIPMGILRPYLSWTESLEPLQGAVAKFFSASCVPCIDRQAYPNLCQLCKGEGENQCACSSREPYFGYSGAFKCLQDGAGDVAFVKETTVFENLPEKADRDQYELLCLNNSRAPVDAFKECHLAQVPSHAVVARSVDGKEDLIWKLLSKAQEKFGKNKSRSFQLFGSPPGQRDLLFKDSALGFLRIPSKVDSALYLGSRYLTTLKNLRETAEEVKARYTRVVWCAVGPEEQKKCQQWSQQSGQNVTCATASTTDDCIVLVLKGEADALNLDGGYIYTAGKCGLVPVLAENRKSSKHSSLDCVLRPTEGYLAVAVVKKANEGLTWNSLKDKKSCHTAVDRTAGWNIPMGLIVNQTGSCAFDEFFSQSCAPGADPKSRLCALCAGDDQGLDKCVPNSKEKYYGYTGAFRCLAEDVGDVAFVKNDTVWENTNGESTADWAKNLNREDFRLLCLDGTRKPVTEAQSCHLAVAPNHAVVSRSDRAAHVKQVLLHQQALFGKNGKNCPDKFCLFKSETKNLLFNDNTECLAKLGGRPTYEEYLGTEYVTAIANLKKCSTSPLLEACAFLTR
Decrease (of MIC of LF) (S. aureus ATCC 25923; by combination with penicillin): 32 fold
MIC LF (S. aureus ATCC 25923; [2]): 780 µg/mL
Decrease (of MIC of LF) (S. aureus PC-1; by combination with penicillin): 64 fold
MIC LF (S. aureus PC-1; [2]): 390 µg/mL
Decrease (of MIC of LF) (S. aureus SHY97-3906; by combination with penicillin): 16 fold
MIC LF (S. aureus SHY97-3906; [2]): 1560 µg/mL
Decrease (of MIC of LF) (S. aureus SHY97-4320; by combination with penicillin): 64 fold
MIC LF (S. aureus SHY97-4320; [2]): 390 µg/mL
MICs of lactoferrin alone (S. aureus strains): greater than 25 mg/ml
induction of β-lactamase by penicillin G [1]: completely block induction of β-lactamase
effect of addition of 5 μM of FeCl3 on LF growth inhibitory activity (S. aureus): did not affect
growth inhibitory activity (S. aureus; bovine LF saturated to 16.2% of iron): demonstrated a growth inhibitory activity

— patent US20030134779A1, “Method and composition for treatment and/or prevention of antibiotic-resistant microorganism infections” (priority 2002, published 2003)
